Measurements taken from US20050158311A1.

Assays:
Assay in all cases: cell-based or functional assay
[1] = molecular target: endogenous Ryk of mouse (brain cell lysate; DRG explants) (mouse) (UniProt Q01887)
[2] = molecular target: over-expressed Ryk (from a transfected DNA construct expressing Ryk)
[3] = molecular target: Dishevelled (overexpressed in 293T cells)
[4] = molecular target: endogenous Ryk of 293T cells (human) (UniProt P34925)
Chain of UniProt P34925 (P34925 26-607 limits assumed): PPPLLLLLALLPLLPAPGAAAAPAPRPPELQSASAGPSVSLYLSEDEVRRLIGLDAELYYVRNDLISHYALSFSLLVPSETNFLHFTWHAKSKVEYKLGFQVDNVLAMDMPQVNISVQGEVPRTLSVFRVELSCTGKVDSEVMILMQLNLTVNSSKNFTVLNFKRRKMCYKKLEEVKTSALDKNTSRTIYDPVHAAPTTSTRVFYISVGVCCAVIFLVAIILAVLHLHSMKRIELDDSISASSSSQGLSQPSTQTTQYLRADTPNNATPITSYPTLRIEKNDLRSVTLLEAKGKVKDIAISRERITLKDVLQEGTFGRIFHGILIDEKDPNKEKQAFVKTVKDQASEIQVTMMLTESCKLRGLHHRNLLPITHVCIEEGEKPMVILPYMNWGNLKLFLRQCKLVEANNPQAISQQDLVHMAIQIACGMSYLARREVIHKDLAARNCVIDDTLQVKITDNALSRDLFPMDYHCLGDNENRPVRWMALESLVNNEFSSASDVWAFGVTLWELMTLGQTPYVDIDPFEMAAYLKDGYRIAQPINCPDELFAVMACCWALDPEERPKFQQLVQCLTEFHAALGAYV

Chain of UniProt Q01887 (Q01887 35-594 limits assumed): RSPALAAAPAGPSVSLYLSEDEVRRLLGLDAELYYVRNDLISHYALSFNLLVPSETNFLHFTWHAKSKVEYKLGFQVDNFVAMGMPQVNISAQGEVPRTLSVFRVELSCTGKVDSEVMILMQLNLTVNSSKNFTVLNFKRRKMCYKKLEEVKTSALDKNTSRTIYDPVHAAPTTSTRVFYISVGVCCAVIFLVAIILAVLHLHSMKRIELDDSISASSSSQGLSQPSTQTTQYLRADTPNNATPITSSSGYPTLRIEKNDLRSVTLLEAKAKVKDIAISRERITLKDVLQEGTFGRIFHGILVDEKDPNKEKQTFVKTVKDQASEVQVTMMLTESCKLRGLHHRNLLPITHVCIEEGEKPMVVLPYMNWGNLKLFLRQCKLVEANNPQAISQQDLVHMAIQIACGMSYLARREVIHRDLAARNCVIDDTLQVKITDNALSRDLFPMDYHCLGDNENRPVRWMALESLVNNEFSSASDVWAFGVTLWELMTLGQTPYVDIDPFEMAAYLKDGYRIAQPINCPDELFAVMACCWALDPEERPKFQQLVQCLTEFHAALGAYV

For “Wnt3a (Wnt3a conditioned medium) (ligand)”, the average length of neurites of DRG explants, Ryk siRNA mice against wild type [1] was 2 fold and the activation of the TCF-luciferase reporter [2] was 5 fold.

“over-expressed Ryk (from a transfected DNA construct expressing Ryk) (receptor)” showed an activation of the TCF-luciferase reporter [3] of 25 fold.

B1: Wnt-1 (cotransfected in the TCF-luciferase reporter assay) (ligand, UniProt P04628 28-370, looked up, species assumed)
Proto-oncogene Wnt-1: ANSSGRWWGIVNVASSTNLLTDSKSLQLVLEPSLQLLSRKQRRLIRQNPGILHSVSGGLQSAVRECKWQFRNRRWNCPTAPGPHLFGKIVNRGCRETAFIFAITSAGVTHSVARSCSEGSIESCTCDYRRRGPGGPDWHWGGCSDNIDFGRLFGREFVDSGEKGRDLRFLMNLHNNEAGRTTVFSEMRQECKCHGMSGSCTVRTCWMRLPTLRAVGDVLRDRFDGASRVLYGNRGSNRASRAELLRLEPEDPAHKPPSPHDLVYFEKSPNFCTYSGRLGTAGTAGRACNSSSPALDGCELLCCGRGHRTRTQRVTERCNCTFHWCCHVSCRNCTHTRVLHECL
In the case of B1, the activation of the TCF-luciferase reporter [4] is reported as 25 fold and the fold decrease in TCF-driven transcription in Ryk siRNA-containing 293T cells [4] is reported as 12 fold.
